Data taken from patent US20170212130A1.

Columns and labels:
[1] = molecular target: GFP-His6 (eGFP) (Aequorea victoria) [GFP: P42212]; assay: label under gel lane; legend: in vitro Kd for GFP by SPR; the asterisk is not explained on the sheet
[2] = molecular target: S. cerevisiae Nup84-GFP (S. cerevisiae) (UniProt P52891); assay: time course of Nup84-GFP isolation from yeast with dimer-conjugated magnetic beads, Coomassie band quantification

Substance	Kd [1] [pM]	relative yield of affinity isolation, percent of maximum, after 5 minutes [2] [%]	relative yield of affinity isolation, percent of maximum, after 10 minutes [2] [%]
GFP-Trap nanobody (ChromoTek GmbH) (VHH)	230	–	–
LaG16-LaG2 fusion with a flexible glycine-rich linker (G4S)	–	80	90
